We go through 1 substance from publication PMC4066811.

For assay [1], the target named is GST-syntaxin 3B (cytoplasmic domain without the transmembrane domain, residues 2-264), wild type (mouse). As to the kind of experiment: pull-down.
Assay [2] addresses GST-syntaxin 3B T14E (phosphomimetic mutant, without the transmembrane domain) (mouse). As to the kind of experiment: pull-down.

Turning to “His6-SNAP-25b (recombinant) (from UniProt P60879-1 1-206) (natural protein)”, the amount of bound SNAP-25, normalized to wild type in assay [1] stood at 100%; in assay [2], 180%.
